The target of assay [1] is T1, recombinant VEGFR-2 protein (water soluble extracellular site of human VEGFR-2 with Fc of human IgG1 … (human, UniProt P35968 20-764)).
T1 construct: extracellular domain; Bought; not shown: Fc of human IgG1
The assay is described as follows: competitive ELISA; synergibody titrated with 1 nM VEGFR-2 on coated VEGF 165. As for the experimental part: Competitive ELISA is performed using the peptides synthesized above in Section 6A in order to assess the molecular interaction of the binders. […] Then the plate is washed five times with PBS containing 0.1% Tween-20, and blocked at room temperature for two hours with PBS containing 5% BSA. For VEGF:VEGFR-2 neutralization ELISA, each of the peptides synthesized in Section 6A above are diluted to one-fourth each time from 100 nM with PBS containing 1 nM VEGFR-2 and 1% BSA, and adjusted to 6.1 pM. 100 μl of peptide/VEGFR-2 solution is added to each well and the plate is left to react at room temperature for two hours. Subsequently, it is washed five times with PBS containing 0.1% Tween-20, mouse anti-VEGFR-2 antibodies (R&D Systems) is diluted to about 1:3,000 with PBS containing 1% BSA, and left to react at room temperature for one hour. Then 100 μl of goat anti-mouse-IgG-HRP (Pierce) diluted to about 1:10,000 with PBS containing 1% BSA is added to each well of the plate, left to react at room temperature for one hour, and washed five times with PBS containing 0.1% Tween-20. Lastly, 100 μl of TMB substrate (SIGMA) is added to each well of the plate to induce color reaction. The reaction is stopped by adding 50 μl of 5N H₂SO₄ solution, and the OD₄₅₀ value is read on a plate reader (Molecular Devices). Through the foregoing, the IC₅₀ value for the VEGF:VEGFR-2 binding capacity is obtained.
The method in Example 2, Section 6B above is used, except that, in the present example, each fused protein synergibodies are diluted from 100 nM to one-fourth each time with PBS containing 1% BSA and 1nM VEGFR-2 and adjusted to 6.1 pM for VEGF:VEGF-2 neutralization ELISA.

For assay [2], the target named is T2, recombinant hAng-2 (recombinant protein with His tag attached to human Ang-2; R&D Systems) (human, UniProt O15123 19-496).
T2 construct: also called angiopoietin-2; ANGPT2
T2 sequence (looked up): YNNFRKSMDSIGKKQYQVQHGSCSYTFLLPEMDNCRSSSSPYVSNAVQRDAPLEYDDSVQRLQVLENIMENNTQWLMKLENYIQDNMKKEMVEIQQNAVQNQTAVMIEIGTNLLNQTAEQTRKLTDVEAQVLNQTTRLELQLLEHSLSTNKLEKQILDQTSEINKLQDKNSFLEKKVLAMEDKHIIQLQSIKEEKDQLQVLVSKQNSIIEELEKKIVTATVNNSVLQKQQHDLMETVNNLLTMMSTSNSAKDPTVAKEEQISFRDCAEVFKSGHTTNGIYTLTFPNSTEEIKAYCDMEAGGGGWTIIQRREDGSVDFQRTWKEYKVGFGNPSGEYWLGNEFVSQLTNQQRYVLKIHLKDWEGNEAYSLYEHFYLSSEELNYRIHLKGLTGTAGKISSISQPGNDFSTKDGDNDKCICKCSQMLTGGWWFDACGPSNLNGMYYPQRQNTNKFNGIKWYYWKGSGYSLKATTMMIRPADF
The assay is described as follows: competitive ELISA; synergibody titrated with 1 nM hAng-2 (His) on coated hTie2-Fc. As for the experimental part:
A competitive ELISA is performed to assess the molecular interaction of the binders. A 96-well MaxiSorp™ flat-bottom plate (Nunc) is coated with hTie2-Fc (R&D Systems), which is a fused protein including the water-soluble extracellular portion of human Tie-2 and Fc of human IgG₁ dissolved in DMEM culture solution containing 50 μg/ml bovine serum albumin (BSA). The concentration of hTie2-Fc used as a coating material is equivalent to 75% of its maximum binding concentration with 1 nM of recombinant hAng-2 (recombinant protein with His tag attached to human Ang-2; R&D Systems). Then the plate is washed five times with Phosphate Buffer Saline (PBS) containing 0.1% Tween-20 and blocked at room temperature for two hours with PBS containing 5% BSA. Each anti-Ang-2 antibodies are diluted from 100 nM by one-fourth each time with PBS containing 1% BSA and 1 nM hAng-2 and adjusted to 6.1 pM for Ang-2:Tie-2 neutralization ELISA. 100 μl of antibody/hAng-2 solutions are placed in each corresponding well and left to react at room temperature for two hours. Then the wells are washed five times with PBS containing 0.1% Tween-20, and the anti-His antibodies (GE Healthcare) are diluted to about 1:3,000 with PBS containing 1% BSA and left to react at room temperature for one hour. Afterwards, 100 μl of goat anti-mouse-IgG-HRP (Pierce) diluted with PBS containing 1% BSA to about 1:10,000 is added to each well of the plate, left to react at room temperature for one hour, and washed with PBS containing 0.1% Tween-20 five times. Lastly, 100 μl of TMB substrate (SIGMA) is added to each well of the plate to induce color reaction, and the reaction is stopped by adding 50 μl of 5N H₂SO₄ solution. The OD₄₅₀ value is read on a plate reader (Molecular Devices).
The method described in Example 1, Section 3 above is used, except that, in the present example, each fused protein synergibodies are diluted from 100 nM to one-fourth each time with PBS containing 1% BSA and 1 nM hAng-2 and adjusted to 6.1 pM for Ang-2:Tie-2 neutralization ELISA.
On the technique in general: In an ELISA, binding on a coated surface is turned into a signal by an enzyme label.

T1 sequence (P35968 20-764): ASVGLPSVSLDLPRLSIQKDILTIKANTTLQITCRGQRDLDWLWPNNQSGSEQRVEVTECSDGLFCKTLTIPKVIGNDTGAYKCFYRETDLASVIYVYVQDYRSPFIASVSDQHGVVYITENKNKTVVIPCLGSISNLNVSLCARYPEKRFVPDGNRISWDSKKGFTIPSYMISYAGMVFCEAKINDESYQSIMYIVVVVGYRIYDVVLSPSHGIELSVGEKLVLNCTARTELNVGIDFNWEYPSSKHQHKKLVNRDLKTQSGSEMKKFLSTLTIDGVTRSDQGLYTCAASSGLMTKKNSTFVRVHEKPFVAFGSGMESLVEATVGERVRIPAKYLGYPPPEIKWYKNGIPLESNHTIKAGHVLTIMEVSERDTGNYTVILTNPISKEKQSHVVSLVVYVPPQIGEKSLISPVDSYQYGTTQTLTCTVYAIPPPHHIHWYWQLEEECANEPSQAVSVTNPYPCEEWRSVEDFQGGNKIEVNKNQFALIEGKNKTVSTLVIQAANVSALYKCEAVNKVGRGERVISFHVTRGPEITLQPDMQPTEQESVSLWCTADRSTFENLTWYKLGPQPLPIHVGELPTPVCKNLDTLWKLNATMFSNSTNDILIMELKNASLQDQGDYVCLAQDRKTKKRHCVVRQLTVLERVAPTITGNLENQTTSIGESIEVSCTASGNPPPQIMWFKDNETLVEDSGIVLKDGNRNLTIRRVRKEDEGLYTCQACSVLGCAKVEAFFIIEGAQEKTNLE

B1: Syn-Ang-VEGFR-17 (other)
heavy (part 1 of 2): QVQLQQSGAELARPGASVKLSCKASGYTFTDYYINWAKQRTGQGLEWIGEIYPGSGDTYYNEKFKGKATLTADKSSSTAYMQLSSLTSEDSAVYFCARYGYKGVYFDYWGQSTTLTVSS
heavy (part 2 of 2): EAGKETCGYEWQYCPRP
light: ENVLTQSPAIMAASLGQKVTMTCSASSSVSSSYLHWYQQKSGASPKPLIHRTSNLASGVPARFSGSGSGTSYSLTISSVEAEDDATYYCQQWSGYPFTFGAGTKLELK
notes: Chimeric (human IgG1) SAITAng-2-4 with the peptide at the C-terminus of the heavy chain; also called SAITAng-2-4 x DTN8VEGFR-2-2; not shown: human IgG1 heavy chain constant region with Fc region, from the vector; human light chain constant region, printed as 'constant region of human IgG1'
Consider B1, for which the IC50 (as a rule, the point on the concentration scale where inhibition reaches its midpoint) in assay [1] worked out at 1.05 nM; in assay [2], 0.998 nM.

B2: Syn-Ang-VEGFR-6 (other)
heavy (part 1 of 2): QVQLQQSGPELVKPGASVKMSCKASGYTFTDYVISWVKQRTGQGLEWIGEIYPGSGSTYYNEKFKGKASLTADKSSNTAYMQLSSLTSADSAVYFCVRSRGDYYAMDYWGQGTSVTVSS
heavy (part 2 of 2): TGSDDLCYTFPCMHY
light: DIQMTQSPSSLSASLGGKVTITCKASQDINNYITWYQHKPGKGPRLLIHYTSTLQPGIPSRFSGSGSGRDYSFSISNLEPEDIATYYCLQYDNLLTFGGGTKLEIK
notes: Chimeric (human IgG1) SAITAng-2-2 with the peptide at the C-terminus of the heavy chain; also called SAITAng-2-2 x DTN6VEGFR-2-1; not shown: human IgG1 heavy chain constant region with Fc region, from the vector; human light chain constant region, printed as 'constant region of human IgG1'
For the molecule B2, the IC50 in assay [1] amounted to 1.56 nM; in assay [2], 1.91 nM.

B3: Syn-Ang-VEGFR-7 (other)
heavy (part 1 of 2): QVQLQQSGPELVKPGASVKMSCKASGYTFTDYVISWVKQRTGQGLEWIGEIYPGSGSTYYNEKFKGKASLTADKSSNTAYMQLSSLTSADSAVYFCVRSRGDYYAMDYWGQGTSVTVSS
heavy (part 2 of 2): EAGKETCGYEWQYCPRP
light: DIQMTQSPSSLSASLGGKVTITCKASQDINNYITWYQHKPGKGPRLLIHYTSTLQPGIPSRFSGSGSGRDYSFSISNLEPEDIATYYCLQYDNLLTFGGGTKLEIK
notes: Chimeric (human IgG1) SAITAng-2-2 with the peptide at the C-terminus of the heavy chain; also called SAITAng-2-2 x DTN8VEGFR-2-2; not shown: human IgG1 heavy chain constant region with Fc region, from the vector; human light chain constant region, printed as 'constant region of human IgG1'
B3: the figures for the IC50 in assay [1] and in assay [2] were 1.76 nM and 2.01 nM, respectively.

B4: Syn-Ang-VEGFR-8 (other)
heavy (part 1 of 2): QVQLQQSGPELVKPGASVKMSCKASGYTFTDYVISWVKQRTGQGLEWIGEIYPGSGSTYYNEKFKGKASLTADKSSNTAYMQLSSLTSADSAVYFCVRSRGDYYAMDYWGQGTSVTVSS
heavy (part 2 of 2): EAGAYWCKAWGLSPCLVT
light: DIQMTQSPSSLSASLGGKVTITCKASQDINNYITWYQHKPGKGPRLLIHYTSTLQPGIPSRFSGSGSGRDYSFSISNLEPEDIATYYCLQYDNLLTFGGGTKLEIK
notes: Chimeric (human IgG1) SAITAng-2-2 with the peptide at the C-terminus of the heavy chain; also called SAITAng-2-2 x DTN9VEGFR-2-3; not shown: human IgG1 heavy chain constant region with Fc region, from the vector; human light chain constant region, printed as 'constant region of human IgG1'
As for B4, the IC50 in assay [1] is 1.48 nM; in assay [2] it was 2.22 nM.

B5: Syn-Ang-VEGFR-10 (other)
heavy (part 1 of 2): QVQLQQSGPELVKPGASVKMSCKASGYTFTDYVISWVKQRTGQGLEWIGEIYPGSGSTYYNEKFKGKASLTADKSSNTAYMQLSSLTSADSAVYFCVRSRGDYYAMDYWGQGTSVTVSS
heavy (part 2 of 2): PGSQGYCHLNMRYQWICDSE
light: DIQMTQSPSSLSASLGGKVTITCKASQDINNYITWYQHKPGKGPRLLIHYTSTLQPGIPSRFSGSGSGRDYSFSISNLEPEDIATYYCLQYDNLLTFGGGTKLEIK
notes: Chimeric (human IgG1) SAITAng-2-2 with the peptide at the C-terminus of the heavy chain; also called SAITAng-2-2 x DTN11VEGFR-2-5; not shown: human IgG1 heavy chain constant region with Fc region, from the vector; human light chain constant region, printed as 'constant region of human IgG1'
For the molecule B5, the values for the IC50 in assay [1] and in assay [2] were 2.16 nM and 2 nM, respectively.

B6: Syn-Ang-VEGFR-9 (other)
heavy (part 1 of 2): QVQLQQSGPELVKPGASVKMSCKASGYTFTDYVISWVKQRTGQGLEWIGEIYPGSGSTYYNEKFKGKASLTADKSSNTAYMQLSSLTSADSAVYFCVRSRGDYYAMDYWGQGTSVTVSS
heavy (part 2 of 2): TGSGRMCDGSGPPTNCWFT
light: DIQMTQSPSSLSASLGGKVTITCKASQDINNYITWYQHKPGKGPRLLIHYTSTLQPGIPSRFSGSGSGRDYSFSISNLEPEDIATYYCLQYDNLLTFGGGTKLEIK
notes: Chimeric (human IgG1) SAITAng-2-2 with the peptide at the C-terminus of the heavy chain; also called SAITAng-2-2 x DTN10VEGFR-2-4; not shown: human IgG1 heavy chain constant region with Fc region, from the vector; human light chain constant region, printed as 'constant region of human IgG1'
Consider B6, for which the IC50 in assay [1] came to 2.04 nM; in assay [2] it was 1.95 nM.

The values are drawn from patent US20110076723A1, “ANTIBODY-PEPTIDE FUSED SYNERGIBODY” (SAMSUNG ELECTRONICS CO., LTD., priority 2008, published 2011).
